In article PMC6990103 (2019):

Key:
Experiment in all cases: ELISA
[1] = biological target: recombinant EBOV Kikwit 1995 NP (Zaire ebolavirus (EBOV) Kikwit 1995, UniProt O72142 1-739)
[2] = biological target: nluc-NP612 fusion protein, EBOV (Zaire ebolavirus (EBOV), UniProt O72142 612-739)
[3] = biological target: nluc-NP612 fusion protein, SUDV (Sudan ebolavirus (SUDV), UniProt Q9QP77 612-738)
[4] = biological target: recombinant SUDV Boniface 1976 NP (Sudan ebolavirus (SUDV) Boniface 1976, UniProt Q9QP77 1-738)

Binder | EC50 [1] | EC50 [2] | further results
sdAb ZE-gluc fusion (glucibody) (VHH) VHH: QVQLQESGGGLVQPGGSLRLSCTASGFTLAEYGVGWFRQAPGKERELVALIAVGGTTHSIDSVKGRFTISRDNMKNTVYLQMNSLNVEDTAVYYCNAYSSAYDRNYWGQGTQVTVSS | 31 nM |  | 
sdAb ZE, biotinylated (from pecan126) (VHH, biotin (singly biotinylated)) VHH: QVQLQESGGGLVQPGGSLRLSCTASGFTLAEYGVGWFRQAPGKERELVALIAVGGTTHSIDSVKGRFTISRDNMKNTVYLQMNSLNVEDTAVYYCNAYSSAYDRNYWGQGTQVTVSS |  | 1030 nM | 
sdAb SB, biotinylated (from pecan126) (VHH, biotin (singly biotinylated)) VHH: QVKLQQSGGGSVQEGGSLRLSCASSGAFFRAGPMGWYRRAPGNERELVAGISRNGRTIYAPSLKDRFTISRDDDNNILYLQMSDLTPGDTAVYYCNLNVRTAVAGRNDYWGQGTQVTVSS |  |  | EC50 [3]: 635 nM
sdAb ZC-gluc fusion (glucibody) (VHH) VHH: KVQLQQSGGGSVTPGGSLRLSCAASGSISDFAAMAWYRQAPGKERDWVGTIFSAGALLYAEPVKGRFTISRDNAKNTVYLQMNSLKPEDTAVYYCRLYAEAIYWGQGTQVTVSS | 13 nM |  | 
sdAb SB-gluc fusion (glucibody) (VHH) VHH: QVKLQQSGGGSVQEGGSLRLSCASSGAFFRAGPMGWYRRAPGNERELVAGISRNGRTIYAPSLKDRFTISRDDDNNILYLQMSDLTPGDTAVYYCNLNVRTAVAGRNDYWGQGTQVTVSS |  |  | EC50 [4]: 37 nM
sdAb ZC, biotinylated (from pecan126) (VHH, biotin (singly biotinylated)) VHH: KVQLQQSGGGSVTPGGSLRLSCAASGSISDFAAMAWYRQAPGKERDWVGTIFSAGALLYAEPVKGRFTISRDNAKNTVYLQMNSLKPEDTAVYYCRLYAEAIYWGQGTQVTVSS |  | 186 nM | 
